According to patent US20230242623A1 (GEORGIA TECH RESEARCH, published 2023):

Molecular target: T1, SARS-CoV-2 spike ectodomain protein (SARS-CoV-2, UniProt P0DTC2 14-1213)
T1 construct: extracellular domain
Assay: BLI, immobilized spike ectodomain; avidity reported as 1/Kads

B1: 3A7 (antibody, V domains shown)
VH: QVTLKESGPGILQPSQTLSLTCSFSGFSLSTSGMGVSWIRQPSGKGLEWLAHIYWDDDKRYNPSLKSRLTISKDTSSSQVFLKITSVDTVDTATYYCARRGPLITTDGTFDVWGAGTTVTVSS
VL: DIVMTQSRKFMSTSVGDRVSITCKASQDVGTSVAWYQQKPGQSPKLLIYWASTRHTGVPDRFTGSGSGTDFTLTINSVQSEDLADYFCQQYSSYPYTFGGGTKLEMK
notes: also called 3A7 clone
B1 showed a Kd of roughly 0.01 nM.
